Literature values as cited in article PMC6051640.

Molecular target: retinol binding protein (Homo sapiens) (UniProt P02753)

Kd: 59 nM
Substance: Stra6 (from UniProt Q9BX79)
